Among the data in paper PMC3604133 are stoichiometry N values, retold here.

For the assay, the target named is Aβ40-S26C (synthetic human Aβ1-40 in which Ser26 was changed to cysteine) (human). Nature of the assay: SEC. On the technique in general: Size exclusion chromatography separates by hydrodynamic size, large species first.

Regarding “Aβ40-S26C (synthetic human Aβ1-40 in which Ser26 was changed to cysteine) (peptide)”, the stoichiometry N (as a rule, a count of units in the complex or per binding partner) was 2.
